System: MS2 coat protein
Assay: apparent KD of MS2 coat protein; higher = weaker reporter binding
Conditions: Eterna round: R107
Method in brief: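 On-chip transcription from Illumina sequencing clusters produced the designed RNA switches. These were titrated with SNAP-549-labelled MS2 coat protein (twofold steps, 0.7 or 1.5 nM to 3 µM) in 100 mM Tris-HCl pH 7.5, 80 mM KCl, 4 mM MgCl2, with or without constant ligand. The apparent KD given is the per-design median of normalised cluster binding-curve fits.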

[1] = input ligand: theophylline 20 uM
[2] = input ligand: theophylline 2 mM
[3] = input ligand: tryptophan 2.4 mM

Sequence | apparent KD of MS2 coat protein (input ligand: arginine 13.2 mM) [nM] | apparent KD of MS2 coat protein (input ligand: none) [nM] | apparent KD of MS2 coat protein [1] [nM] | apparent KD of MS2 coat protein [2] [nM] | apparent KD of MS2 coat protein [3] [nM]
GGUGGCGUGACGGAUACCAGCCACCACCGUUAGACCACAUGAGGAUCACCCAUGUUGGGUGGCCCUUGGCAGCUGUCGUGCGGCG [#1 Same State - Theophylline B Attempt #18 (HarryS)] | 140 | 377 | 250 | 113 | 337
GGUGGCUCCAUCGAUACCAGCCACCACCGAUAGACCACAUGAGGAUCACCCAUGUUGGGUGGCCCUUGGCAGCGGUGAAGCUGCC [#1 Same State - Theophylline B Attempt #4 (HarryS)] | 44.1 | 304 | 416 | 34.5 | 657
GGUUGGUGUAGAGAUAUAUUGAUUACUGAAGGAGCGGGAAGAAACCCAGGUAGGUCGCAGAGAUCCACAUGAGGAUCACCCAUGU [!0.L] | 26.7 | 38.6 | 49.5 | 59.3 | 27.5
GGUUGGUUUAUAUAUAGAUUGAUUACUGAAGGAGCGGGAAAUAACCCAGGUAGGUCGCAGAGAUCCACAUGAGGAUCACCCAUGU [!0.I] | 34.2 | 39.5 | 50.6 | 53 | 42.9
GUAUGGAAACAUACUAGGGUAUCAUGAGAUACCAGUACAGAAAUGUACCCUUGGCAGCUCAAGCAUACAUGAGGAUCACCCAUGU [Ex Theophylline A 7] | 15 |  | 22.7 |  | 15.8
GUAUGGAAACAUACUAGGGUAUCGUGAGAUACCAGUACAGAAAUGUACCCUUGGCAGCUCGCGCAUACAUGAGGAUCACCCAUGU [Ex Theophylline A 9] | 19.4 |  | 26.9 |  | 19.7
GUUGCACAUGAGGAUCACCCAUGUUUGGAUACCAGUCUCUGUAAUGACCCUUGGCAGCCACCAUAGACGCUUGAGUAGAGCCUGA [theeternabot_sameState_MS2_Theo_A_21] | 14.2 |  | 19.4 |  | 15.5
GUUUACAUGAGGAUCACCCAUGUCGCCGGCCGAGGACCGGUACGGCCGCCACUCGUCCUAAUGGCACUUGACUUCCCUAUUAAGU [theeternabot_sameState_MS2_Trp_A_33] | 20.4 |  | 31.3 | 25.5 | 
UAAACUACACAUGAGGAUCACCCAUGUGGCCGAGGACCGGUACGGCCGCCACUCGUGUGUUAAUAAAAGAACUGCAAGGUUCUUC [Uslausce] | 76.1 |  | 325 | 748 | 
UAAAUAAUCUGGGUGUAGGUAAUAACAGAUACCAGCCAGAUAACUGGCCCUUGGCAGCUGAAAACAUGAGGAUCACCCAUGUAAA [Mat - Same State Theophlline A - Mod of Eli - D19] | 58.3 | 80.6 | 129 | 84.6 | 57.4
UAACAUGAGGAUCACCCAUGUUUAGAUGAACGAGGACCGGUACGGCCGCCACUCGAUAAGUGGAAAGAGCGAGGGAUUGUAUGCU [Same State Trp A GF4] | 12.2 | 12.4 | 16.2 | 10.3 | 11.9
UAACAUGAGGAUCACCCAUGUUUGGAGAAACGAGGACCGGUACGGCCGCCACUCGAGGAGUGGAUGAGAAGUGGGAUAGAGUGAU [Same State Trp A GF6] | 19.2 | 19.6 | 19.6 | 17.5 | 15.1
UACAUAUGCCGAAGGAGCGCGAGAUGCAAAGCAUCAUUCCUCACAUGAGGAUCACCCAUGUCGCAGGUAGGUCGCGGCAUAUGUU [ArgBX] | 46.7 | 32.5 | 45.1 | 40.3 | 32.4
UACCGAUACGGAAGGAGCGUAGAAGUAGUACAUGAGGAUCACCCAUGUAUGGGUAAUUUCGUACAGGUAGGUCGCCGUAUCGGUA [SSAB NP+V+V2 #23] | 23.3 | 31.8 | 38.3 | 40 | 35.5
UACCGAUGAAGAAGGAGCGUAUGCUUAUAUGAUGGUAACAUGAGGAUCACCCAUGUCAGUAUACAGGUAGGUCGCUUCAUCGGUA [EAB NP+V+V2 #22] | 45.3 | 59.1 | 68.6 | 73.3 | 45.8
UACGCUAGGGCGGCCGCCACUCGGACAUGAGGAUCACCCAUGUCGAUUAAUUGAAGGACAUGAAUGAGGACCGGGCUAAGCUAGG [Same State - Tryptophan B / B] | 20.8 | 29.4 | 38.9 | 27.1 | 23.4
UACUUGCUGACGGCCGCCACUAGAACAUGAGGAUCACCCAUGUAGGUCCUAGAUUCCUCAUGAACUAGGACCGGGUCAGCAAGAU [(Trp1)-(Ms2)-(T)'-(M)'-(Trp2)_Design15] | 53.7 |  | 201 | 221 | 
UACUUGCUGACGGCCGCCACUAGAACAUGAGGAUCACCCAUGUAUUCUAGUCGUCAUGGGUGGACUAGGACCGGGUCAGCAAGAU [(Trp1)-(Ms2)-(T)'-(M)'-(Trp2)_Design8] | 30.7 | 33.8 | 41.8 | 34.7 | 192

From the supplement of paper PMC9170038
